Assay results taken from patent US20180251524A1 (REGENTS OF THE UNIVERSITY OF MINNESOTA, published 2018).
Changes are numbered by the printed parent chain. Names may count otherwise. One block for each binder: values may come before it.

Columns and labels:
[1] = target: T1, epithelial cell adhesion molecule (EpCAM) on EpCAM-expressing MCF-7 cells (human, UniProt P16422 24-314); assay: flow cytometry titration on EpCAM+ MCF-7 cells
T1 construct: whole, on cells; also called cellular EpCAM; EpCAM+ MCF-7 cells
T1 sequence (looked up): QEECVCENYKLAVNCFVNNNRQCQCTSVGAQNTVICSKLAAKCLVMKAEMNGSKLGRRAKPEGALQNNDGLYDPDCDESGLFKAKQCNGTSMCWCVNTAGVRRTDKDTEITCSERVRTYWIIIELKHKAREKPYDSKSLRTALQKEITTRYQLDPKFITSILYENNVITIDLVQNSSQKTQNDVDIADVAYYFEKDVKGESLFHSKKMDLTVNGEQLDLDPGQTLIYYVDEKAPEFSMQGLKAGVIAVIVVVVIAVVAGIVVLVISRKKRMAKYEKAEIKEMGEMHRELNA

[2] = target: T1, epithelial cell adhesion molecule …; assay: flow cytometry on EpCAM+ MCF-7 cells
[3] = target: T1, epithelial cell adhesion molecule …; assay: flow cytometry titration on EpCAM-expressing MCF-7 cells, anti-MYC detection; apparent (multivalent) Kd
Experimental: The apparent affinity and selectivity of the Fn3 and mSA/Fn3 CSANs was determined by flow cytometry, as previously described (Stern, et al., ACS Combinatorial Science 2017, 19 (5), 315-323). Briefly, EpCAM-expressing MCF-7 cells and EpCAM-negative U-87 MG cells were cultured to approximately 80% confluency, detached, and counted, as described above. Aliquots of 5×10⁴ cells were washed with PBSA (PBS with 0.1% w/v bovine serum albumin) and labeled with varying concentrations of Fn3 or mSA/Fn3 CSANs for ≥90 min at 4° C. Cells were then pelleted (500 g, 5 min, 4° C.) and resuspended in 50 μL anti-MYC (clone 9E10) Alexa Fluor 647 conjugate (Thermo Fisher Scientific, Cat: MA1-980-A647; 5 μg/mL in PBSA). After incubating at 4° C. for ≥30 min in the dark, cells were again pelleted and washed thrice with 1 mL cold PBSA before the fluorescence was analyzed on an LSR II flow cytometer (BD Biosciences).

[4] = target: T1, epithelial cell adhesion molecule …; assay: flow cytometry titration of unmodified parent ligand on MCF-7 cells
[5] = target: T1, epithelial cell adhesion molecule …; assay: flow cytometry titration of biotinylated ligand on EpCAM+ MCF-7 cells
[6] = target: T1, epithelial cell adhesion molecule …; assay: flow cytometry titration of soluble clone on MCF-7 cells
[7] = target: T1, epithelial cell adhesion molecule …; assay: flow cytometry, multiple affinity titrations on EpCAM+ MCF-7 cells

binding result [1]: binds
B1: mixed, reduced valency CSANs of 1DD-FnC5-v4 and 1DD-FnNT-v4 subunits (designed binder)
chain 1: MGEQKLISEEDLGGSGGGSGGGISLIAALAVDRVIGMENAMPWNLPADLAWFKRNTLNKPVIMGRHTWESIGRPLPGRKNIILSSQPGTDDRVTWVKSVDEAIAAAGDVPEIMVIGGGRVYEQFLPKAQKLYLTHIDAEVEGDTHFPDYEPDDWESVFSEFHDADAQNSHSYSFEILERRGGISLIAALAVDRVIGMENAMPWNLPADLAWFKRNTLNKPVIMGRHTWESIGRPLPGRKNIILSSQPGTDDRVTWVKSVDEAIAAAGDVPEIMVIGGGRVYEQFLPKAQKLYLTHIDAEVEGDTHFPDYEPDDWESVFSEFHDADAQNSHSYSFEILERRGELGGSGGGGSGGGGSGGGGSGGGGSGGGGSGGGGSGGGGSGGGGSGGASSSDSPRNLEVTNATPNSLTISWDNSNYASYYRITYGETGGNSPSQELTVPGSTYNATISGLKPGQDYIITVYAVTYRDNYSYSNLISINYRSEIDKPSQGSHHHHHH
chain 2: MGEQKLISEEDLGGSGGGSGGGISLIAALAVDRVIGMENAMPWNLPADLAWFKRNTLNKPVIMGRHTWESIGRPLPGRKNIILSSQPGTDDRVTWVKSVDEAIAAAGDVPEIMVIGGGRVYEQFLPKAQKLYLTHIDAEVEGDTHFPDYEPDDWESVFSEFHDADAQNSHSYSFEILERRGGISLIAALAVDRVIGMENAMPWNLPADLAWFKRNTLNKPVIMGRHTWESIGRPLPGRKNIILSSQPGTDDRVTWVKSVDEAIAAAGDVPEIMVIGGGRVYEQFLPKAQKLYLTHIDAEVEGDTHFPDYEPDDWESVFSEFHDADAQNSHSYSFEILERRGELGGSGGGGSGGGGSGGGGSGGGGSGGGGSGGGGSGGGGSGGGGSGGASSSDSPRNLEVTNATPNSLTISWDAPAVTVRYYRITYGETGGNSPSQEFTVPGSKSTATISGLKPGQDYTITVYAVTGRDGSPASSKPISINYRTEIDKPSQGSHHHHHH
notes: Nanoring co-assembled with the chemical dimerizer bis-methotrexate

binding result [2]: no binding
B2: CSANs displaying only the non-binding control domain (1DD-FnNT-v4) (designed binder)
chain: B1 chain 2
notes: Nanoring oligomerized with bis-methotrexate; control; also called 1DD-FnNT-v4 CSANs

binding result [1]: binds
B3: mixed, reduced valency CSANs of 1DD-FnB22-v4 and 1DD-FnNT-v4 subunits (designed binder)
chain 1: B1 chain 1 with N414D, S415Y, N416T, Y417S, L437F, S442N, I448V, K452R, L475P, S482T
chain 2: B1 chain 2
notes: as for B1

Kd [3]: 21 nM
B4: Fn3 CSANs (DHFR^2-Fn3 fusion proteins with clone C5, oligomerized with bisMTX) (designed binder)
chain: MGEQKLISEEDLGGSGGGSGGGISLIAALAVDRVIGMENAMPWNLPADLAWFKRNTLNKPVIMGRHTWESIGRPLPGRKNIILSSQPGTDDRVTWVKSVDEAIAAAGDVPEIMVIGGGRVYEQFLPKAQKLYLTHIDAEVEGDTHFPDYEPDDWESVFSEFHDADAQNSHSYSFEILERRGGISLIAALAVDRVIGMENAMPWNLPADLAWFKRNTLNKPVIMGRHTWESIGRPLPGRKNIILSSQPGTDDRVTWVKSVDEAIAAAGDVPEIMVIGGGRVYEQFLPKAQKLYLTHIDAEVEGDTHFPDYEPDDWESVFSEFHDADAQNSHSYSFEILERRGELGGGGSGGGGSGGGGSASSSDSPRNLEVTNATPNSLTISWDNSNYASYYRITYGETGGNSPSQELTVPGSTYNATISGLKPGQDYIITVYAVTYRDNYSYSNLISINYRSEIDKPSQGSHHHHHH
notes: Multivalent nanoring; also called EpCAM-targeted Fn3 CSANs; monospecific Fn3 CSANs

Kd [3]: 24 nM
B5: bispecific mSA/Fn3 CSANs (co-assembled mSA-DHFR^2 and DHFR^2-Fn3 subunits) (designed binder)
chain 1: B4 chain
chain 2: MAEAGITGTWYNQSGSTFTVTAGADGNLTGQYENRAQGTGCQNSPYTLTGRYNGTKLEWRVEWNNSTENCHSRTEWRGQYQGGAEARINTQWNLTYEGGSGPATEQGQDTFTKVKELGGSGGGSGGGSGGMISLIAALAVDRVIGMENAMPWNLPADLAWFKRNTLNKPVIMGRHTWESIGRPLPGRKNIILSSQPGTDDRVTWVKSVDEAIAAAGDVPEIMVIGGGRVYEQFLPKAQKLYLTHIDAEVEGDTHFPDYEPDDWESVFSEFHDADAQNSHSYSFEILERRGMISLIAALAVDRVIGMENAMPWNLPADLAWFKRNTLNKPVIMGRHTWESIGRPLPGRKNIILSSQPGTDDRVTWVKSVDEAIAAAGDVPEIMVIGGGRVYEQFLPKAQKLYLTHIDAEVEGDTHFPDYEPDDWESVFSEFHDADAQNSHSYSFEILERRGGSGGGSGGGSGGDYKDDDDK
notes: Stochastic mixture of the two subunits oligomerized with bisMTX; also called mSA/Fn3 bispecific CSANs

Kd [4]: 11 nM
B6: EpCAM-binding fibronectin clone C8 (parent ligand) (designed binder)
chain: SSDSPRNLEVTNATPNSLTISWDYPNSASYYRITYSETGGNSPSQEFTVPGNTYNATISGLKPGQDYIITVYAVTYRDNYSYSNLISINYRTEIDKPSQHHHHHH
notes: also called C08

Kd [5]: 5.7 nM
B7: non-specifically biotinylated fibronectin clone C8 (designed binder)
chain: B6 chain
modifications: non-specific biotinylation of primary amines (N-terminus, lysines) with EZ-Link Sulfo-NHS-Biotin
notes: also called biotin-C08; biotin-C8

Kd [4]: 1100 nM
B8: EpCAM-binding fibronectin clone B22 (parent ligand) (designed binder)
chain: B6 chain with Y24D, P25Y, N26T, S36G, I58V, K62R, L85P

Kd [5]: 9.7 nM
B9: non-specifically biotinylated fibronectin clone C10 (designed binder)
chain: B6 chain with Y24D, N26D, S27F, S36G, N41S, N55S, Q65R, Y67H, I68T, L85P
modifications: non-specific biotinylation of primary amines (N-terminus, lysines) with EZ-Link Sulfo-NHS-Biotin
notes: also called biotin-C10

Kd [6]: 17 nM
B10: EpCAM-binding fibronectin (Fn3) clone C5 (designed binder)
chain: B6 chain with Y24N, P25S, S27Y, S36G, F47L, N52S, T92S
notes: Soluble domain made in E. coli; also called Fn 3.4.5; Fn C5

Kd [4]: 25 nM
B11: EpCAM-binding fibronectin clone C10 (parent ligand) (designed binder)
chain: B6 chain with Y24D, N26D, S27F, S36G, N41S, N55S, Q65R, Y67H, I68T, L85P

Kd [7]: 14 nM
B12: NODAGA-Fn-C5 (Fn_C5_G65C conjugated to maleimide-NODAGA) (designed binder)
chain: B6 chain with Y24N, P25S, S27Y, S36G, F47L, N52S, G64C, T92S
modifications: maleimide-NODAGA on the engineered cysteine (G65C, position as in SEQ ID NO: 1)
notes: Single NODAGA per domain by MALDI-MS; also called Fn 3.4.5 G65C NODAGA conjugate

Kd [5]: 1700 nM
B13: non-specifically biotinylated fibronectin clone B22 (designed binder)
chain: B6 chain with Y24D, P25Y, N26T, S36G, I58V, K62R, L85P
modifications: non-specific biotinylation of primary amines (N-terminus, lysines) with EZ-Link Sulfo-NHS-Biotin
notes: also called biotin-B22

binding result [1]: no binding
B14: NODAGA-Fn-NT (Fn_NT_G65C non-targeted control conjugated to maleimide-NODAGA) (designed binder)
chain: SSDSPRNLEVTNATPNSLTISWDAPAVTVRYYRITYGETGGNSPSQEFTVPGSKSTATISGLKPCQDYTITVYAVTGRDGSPASSKPISINYRTEIDKPSQHHHHHH
modifications: maleimide-NODAGA on the engineered cysteine (G65C)
notes: Non-targeted scaffold with wild-type loops, G65C and RGD changed to RDG
